Measured values reported in patent publication US20190375786A1, “STABLE PEPTIDES AND METHODS OF USE THEREOF” (Fred Hutchinson Cancer Research Center, priority 2016, published 2019).

Legend:
[1] = Resistance to reduction by reduced glutathione (GSH), HPLC; format: physicochemical; conditions: 10 mM reduced glutathione (GSH); HPLC vs non-reduced peptide
Description: This example describes stability of designed or engineered peptides under reducing conditions. Peptides that are designed or engineered to interact with one or more target proteins in the cell, such as proteins in the nucleus, are exposed to reducing conditions in the cytosolic compartment of cells. Thus, it is advantageous for peptides of this disclosure to display stability in reducing conditions. Stability of peptides of this disclosure was tested in 10 mM DTT and 10 mM GSH. GSH is a more physiologically relevant reducing agent for testing peptide stability in intracellular conditions. An example of a peptide-target protein interaction is a peptide binding to a TEAD protein.

chymotrypsin = test: SDPR surface display protease resistance, anti-6xHis staining, chymotrypsin; format: cell-based; conditions: HEK-293 cells, up to 40 μg/ml chymotrypsin for 20 minutes
Description: Soluble peptides were exposed to 500 U/mL porcine trypsin and analyzed by HPLC. Protease resistance was also assessed by using SDPR-displaying peptides. The SDPR vector is similar to the a surface display GFP FasL(SDGF) vector, but contains a C-terminal 6×His tag (SEQ ID NO: 180) and all basic or aromatic amino acid residues on the stalk removed. Protease resistance is then tested by incubation of cells displaying peptides with trypsin or chymotrypsin, followed by incubation in 10 mM DTT, and staining with an anti-6×His fluorophore-labeled antibody (“6×His” disclosed as SEQ ID NO: 180). If peptides are uncleaved, they retain the His tag and are stained with by the antibody. A control protease-sensitive knottin peptide (SK) was used as a positive control. Cells displaying peptides were treated with up to 40 μg/ml trypsin or chymotrypsin.
To determine the impact of protease treatment or reducing condition on the function of the peptides, i.e., binding activity, various binding or functional assays can be performed. […] After treatment with the protease and reducing agent, any linearized peptide product or degradation product resulting from reduction and/or proteolysis by treatment with a protease can be detected or analyzed by staining against the 6×His tag (SEQ ID NO: 180). […]

[2] = Circular dichroism thermal stability, heating 20° C. to 95° C.; format: physicochemical; conditions: 10 mM phosphate buffer pH 7.4; heated 20° C. to 95° C.
Description: (§1) Protein secondary structures were assessed using Circular Dichrosim (CD). CD spectra were measured with a Jasco J-720W spectropolarimeter using a 1.0 mm path length cell. Protein samples in 10 mM phosphate buffer (pH=7.4) were at 25-30 μM protein concentration. Samples were analyzed at wavelength ranges of […]. Data were expressed in terms of relative ellipticity [θ]; (mdeg). To determine thermal stability of proteins, samples were subjected to incremental increase in temperature at a ramp of 2° C./min from 20° C. to 95° C. Stability and protein unfolding were monitored at 220 and 215 for α-helix and β-sheet secondary structures, respectively. Data are expressed in terms of relative ellipticity [θ], reported in mdeg. For SEQ ID NO: 43 and its point mutant variants, no changes to the α-helix-dominated structure were observed upon heating up to 95° C. […] Additionally, protein melting temperature (Tm) determination was performed by monitoring protein unfolding using SYPRO Orange dye (Molecular Probes). In brief, 0.1 mg/mL protein sample in 20 μL total volume PBS buffer were mixed with 24, of 10× SYPRO Orange dye. Dye intercalation into the hydrophobic protein core following protein unfolding was assayed using the C1000 Touch Thermal Cycler with CFX96 Deep Well Real-Time System (BioRad). Samples were heated from 20° C. to 95° C. with stepwise increments of 0.5° C. per minute and a 5 sec hold step for every point, followed by fluorescence reading. Tm were calculated by analyzing the derivatives of Relative florescence Units (RFU). FIG. 17D illustrates this SYPRO Orange melting assay of Peptides.

[3] = SYPRO Orange melting assay; format: physicochemical; conditions: heating from 20° C. to 95° C.
Description: as §1

## GSPDEYIERAKECCKKQDIQCCLRIFDESKDPNVMLICLFCW [SEQ ID NO: 43]
[1]
  resistance to GSH reducing conditions: resistant
chymotrypsin
  resistance of surface-displayed peptide to cleavage by chymotrypsin: partially resistant
[2]
  CD secondary structure signature before (Pre) and after (Post) incubation at 95° C.: identical
[3]
  melting temperature (Tm): no melting temperature could be determined
